Assay results published in publication PMC9672952.

What was measured:
[1] = target: RseP from Enterococcus faecalis V583, without His-tag (Enterococcus faecalis V583) (UniProt Q9RPP2)
[2] = target: RseP from Enterococcus faecium P21, without His-tag (Enterococcus faecium P21) (UniProt I3U2R6)
[3] = target: RseP from Lactiplantibacillus plantarum WCFS1, without His-tag (Lactiplantibacillus plantarum WCFS1)
[4] = target: RseP from Lactococcus lactis IL1403, without His-tag (Lactococcus lactis IL1403)
[5] = target: RseP from Staphylococcus arlettae LMGT 4134, without His-tag (Staphylococcus arlettae LMGT 4134)
[6] = target: RseP from Staphylococcus aureus ATCC 14458, without His-tag (Staphylococcus aureus ATCC 14458)
[7] = target: RseP from Staphylococcus haemolyticus, without His-tag (Staphylococcus haemolyticus)
[8] = target: EfmRseP with substitution D372A (Enterococcus faecium P21) (UniProt I3U2R6)
[9] = target: EfmRseP with substitution E19A (Enterococcus faecium P21) (UniProt I3U2R6)
[10] = target: EfmRseP with substitution H18A (Enterococcus faecium P21) (UniProt I3U2R6)
[11] = target: EfmRseP with substitution H22A (Enterococcus faecium P21) (UniProt I3U2R6)
[12] = target: EfmRseP with substitution N359A (Enterococcus faecium P21) (UniProt I3U2R6)
[13] = target: EfmRseP with substitution N364A (Enterococcus faecium P21) (UniProt I3U2R6)
[14] = target: EfmRseP with substitution P367A (Enterococcus faecium P21) (UniProt I3U2R6)
[15] = target: EfmRseP with substitution P369A (Enterococcus faecium P21) (UniProt I3U2R6)
[16] = target: EfmRseP with the triple alanine substitution of the HExxH motif (Enterococcus faecium P21) (UniProt I3U2R6)
[17] = target: Fusion of EfmRseP (1–170) and LpRseP (171–425) (Enterococcus faecium P21 | Lactiplantibacillus plantarum WCFS1) (UniProt I3U2R6)
[18] = target: Fusion of EfmRseP (1–200) and LpRseP (201–425) (Enterococcus faecium P21 | Lactiplantibacillus plantarum WCFS1) (UniProt I3U2R6)
[19] = target: Fusion of EfmRseP (1–221) and LpRseP (222–425) (Enterococcus faecium P21 | Lactiplantibacillus plantarum WCFS1) (UniProt I3U2R6)
[20] = target: Fusion of EfmRseP (1–32) and LpRseP (33–425) (Enterococcus faecium P21 | Lactiplantibacillus plantarum WCFS1) (UniProt I3U2R6)
[21] = target: Fusion of EfmRseP (1–325) and LpRseP (326–425) (Enterococcus faecium P21 | Lactiplantibacillus plantarum WCFS1) (UniProt I3U2R6)
[22] = target: Fusion of LpRseP (1–171, 222–425) and EfmRseP (172–221) (Lactiplantibacillus plantarum WCFS1 | Enterococcus faecium P21) (UniProt I3U2R6)
[23] = target: Fusion of LpRseP (1–171, 326–425) and EfmRseP (172–325) (Lactiplantibacillus plantarum WCFS1 | Enterococcus faecium P21) (UniProt I3U2R6)
[24] = target: Fusion of LpRseP (1–201, 222–425) and EfmRseP (202–221) (Lactiplantibacillus plantarum WCFS1 | Enterococcus faecium P21) (UniProt I3U2R6)
[25] = target: Fusion of LpRseP (1–201, 328–425) and EfmRseP (202–327) (Lactiplantibacillus plantarum WCFS1 | Enterococcus faecium P21) (UniProt I3U2R6)
[26] = target: Fusion of LpRseP (1–221) and EfmRseP (222–422) (Lactiplantibacillus plantarum WCFS1 | Enterococcus faecium P21) (UniProt I3U2R6)
[27] = target: Fusion of LpRseP (1–328) and EfmRseP (329–422) (Lactiplantibacillus plantarum WCFS1 | Enterococcus faecium P21) (UniProt I3U2R6)
[28] = target: RseP from Enterococcus faecium P21, C-terminal 6× His-tag (Enterococcus faecium P21) (UniProt I3U2R6)
[29] = target: RseP from Lactiplantibacillus plantarum WCFS1, C-terminal 6× His-tag (Lactiplantibacillus plantarum WCFS1)
[30] = target: Truncation of EfmRseP (1–39, 139–422) Δ40–138 (Enterococcus faecium P21) (UniProt I3U2R6)

Enterocin K1 (peptide)
MIC50 of EntK1 (growth inhibition, microtiter plate) towards L. plantarum expressing this RseP [1]: 0.04 µM | MIC50 of EntK1 (growth inhibition, microtiter plate) towards L. plantarum expressing this RseP [2]: 0.01 µM | MIC50 of EntK1 (growth inhibition, microtiter plate) towards L. plantarum expressing this RseP [3]: > 22 µM | MIC50 of EntK1 (growth inhibition, microtiter plate) towards L. plantarum expressing this RseP [4]: 0.09 µM | MIC50 of EntK1 (growth inhibition, microtiter plate) towards L. plantarum expressing this RseP; footnote: low expression may contribute [5]: > 22 µM | MIC50 of EntK1 (growth inhibition, microtiter plate) towards L. plantarum expressing this RseP; footnote: low expression may contribute [6]: > 22 µM | MIC50 of EntK1 (growth inhibition, microtiter plate) towards L. plantarum expressing this RseP [7]: 0.17 µM | MIC50 of EntK1 (growth inhibition, microtiter plate) towards L. plantarum expressing this RseP variant [8]: 0.7 µM | MIC50 of EntK1 (growth inhibition, microtiter plate) towards L. plantarum expressing this RseP variant [9]: 0.01 µM | MIC50 of EntK1 (growth inhibition, microtiter plate) towards L. plantarum expressing this RseP variant [10]: 0.02 µM | MIC50 of EntK1 (growth inhibition, microtiter plate) towards L. plantarum expressing this RseP variant [11]: 0.01 µM | MIC50 of EntK1 (growth inhibition, microtiter plate) towards L. plantarum expressing this RseP variant [12]: > 22 µM | MIC50 of EntK1 (growth inhibition, microtiter plate) towards L. plantarum expressing this RseP variant [13]: 0.004 µM | MIC50 of EntK1 (growth inhibition, microtiter plate) towards L. plantarum expressing this RseP variant [14]: 0.004 µM | MIC50 of EntK1 (growth inhibition, microtiter plate) towards L. plantarum expressing this RseP variant [15]: < 0.02 µM | MIC50 of EntK1 (growth inhibition, microtiter plate) towards L. plantarum expressing this RseP variant [16]: 2.7 µM | MIC50 of EntK1 (growth inhibition, microtiter plate) towards L. plantarum expressing this RseP variant [17]: > 22 µM | MIC50 of EntK1 (growth inhibition, microtiter plate) towards L. plantarum expressing this RseP variant [18]: > 22 µM | MIC50 of EntK1 (growth inhibition, microtiter plate) towards L. plantarum expressing this RseP variant [19]: 0.7 µM | MIC50 of EntK1 (growth inhibition, microtiter plate) towards L. plantarum expressing this RseP variant; footnote: low expression may contribute [20]: > 22 µM | MIC50 of EntK1 (growth inhibition, microtiter plate) towards L. plantarum expressing this RseP variant [21]: < 0.002 µM | MIC50 of EntK1 (growth inhibition, microtiter plate) towards L. plantarum expressing this RseP variant [22]: > 22 µM | MIC50 of EntK1 (growth inhibition, microtiter plate) towards L. plantarum expressing this RseP variant [23]: < 0.002 µM | MIC50 of EntK1 (growth inhibition, microtiter plate) towards L. plantarum expressing this RseP variant [24]: > 22 µM | MIC50 of EntK1 (growth inhibition, microtiter plate) towards L. plantarum expressing this RseP variant [25]: 0.09 µM | MIC50 of EntK1 (growth inhibition, microtiter plate) towards L. plantarum expressing this RseP variant [26]: > 22 µM | MIC50 of EntK1 (growth inhibition, microtiter plate) towards L. plantarum expressing this RseP variant [27]: > 22 µM | MIC50 of EntK1 (growth inhibition, microtiter plate) towards L. plantarum expressing this RseP variant [28]: < 0.002 µM | MIC50 of EntK1 (growth inhibition, microtiter plate) towards L. plantarum expressing this RseP variant [29]: > 22 µM | MIC50 of EntK1 (growth inhibition, microtiter plate) towards L. plantarum expressing this RseP variant [30]: 2.7 µM
